Data published in paper PMC3032424.

Molecular target: mouse hemoglobin (mouse) (UniProt P01942)
Assay: BLI

Work on “recombinant IsdB (from UniProt A6QG30 41-613) (receptor)” yielded a Kd of 980 nM.
